# T1: monomeric RANK (UniProt O35305 31-214)
# T1 sequence (looked up): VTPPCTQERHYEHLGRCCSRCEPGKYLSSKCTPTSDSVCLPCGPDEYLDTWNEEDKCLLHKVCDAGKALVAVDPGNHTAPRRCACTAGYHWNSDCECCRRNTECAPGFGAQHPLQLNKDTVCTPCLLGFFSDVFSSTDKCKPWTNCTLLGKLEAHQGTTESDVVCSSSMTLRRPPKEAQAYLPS
# Biological target: T1, monomeric RANK
# Assay: SPR
Kd [nM],koff [s⁻¹],kon [M⁻¹ s⁻¹],Binder
899,0.101,113000,"RANKL K194E (ligand, Homotrimer; limits by convention (mouse RANKL ectodomain core). Species inferred: the printed numbering fits mouse) KPEAQPFAHLTINAASIPSGSHKVTLSSWYHDRGWAEISNMTLSNGKLRVNQDGFYYLYANISFRHHETSGSVPTDYLQLMVYVVKTSEKIPSSHNLMKGGSTKNWSGNSEFHFYSINVGGFFKLRAGEEISIQVSNPSLLDPDQDATYFGAFKVQDID"
67,0.017,174000,"RANKL K194E/Q236H (ligand, Homotrimer; limits by convention (mouse RANKL ectodomain core)) KPEAQPFAHLTINAASIPSGSHKVTLSSWYHDRGWAEISNMTLSNGKLRVNQDGFYYLYANISFRHHETSGSVPTDYLHLMVYVVKTSEKIPSSHNLMKGGSTKNWSGNSEFHFYSINVGGFFKLRAGEEISIQVSNPSLLDPDQDATYFGAFKVQDID"
29,0.005,167000,"RANKL K194E/Q236H/F269Y (ligand, Homotrimer; limits by convention (mouse RANKL ectodomain core)) KPEAQPFAHLTINAASIPSGSHKVTLSSWYHDRGWAEISNMTLSNGKLRVNQDGFYYLYANISFRHHETSGSVPTDYLHLMVYVVKTSEKIPSSHNLMKGGSTKNWSGNSEYHFYSINVGGFFKLRAGEEISIQVSNPSLLDPDQDATYFGAFKVQDID"
81,0.023,300000,"RANKL Q236H (ligand, Homotrimer; limits by convention (mouse RANKL ectodomain core)) KPEAQPFAHLTINAASIPSGSHKVTLSSWYHDRGWAKISNMTLSNGKLRVNQDGFYYLYANISFRHHETSGSVPTDYLHLMVYVVKTSEKIPSSHNLMKGGSTKNWSGNSEFHFYSINVGGFFKLRAGEEISIQVSNPSLLDPDQDATYFGAFKVQDID"

# From paper PMC4581524 (Journal of cellular biochemistry, 2015)
